Measured values published in paper PMC6546417 (Science (New York, N.Y.), 2009).
“And” between values parts separate entries of the source, which are not always exact repeats. Equal values may be shown once.

T1: Dnm1K41A (yeast, UniProt P54861 1-757, K41A)
T1 sequence (looked up): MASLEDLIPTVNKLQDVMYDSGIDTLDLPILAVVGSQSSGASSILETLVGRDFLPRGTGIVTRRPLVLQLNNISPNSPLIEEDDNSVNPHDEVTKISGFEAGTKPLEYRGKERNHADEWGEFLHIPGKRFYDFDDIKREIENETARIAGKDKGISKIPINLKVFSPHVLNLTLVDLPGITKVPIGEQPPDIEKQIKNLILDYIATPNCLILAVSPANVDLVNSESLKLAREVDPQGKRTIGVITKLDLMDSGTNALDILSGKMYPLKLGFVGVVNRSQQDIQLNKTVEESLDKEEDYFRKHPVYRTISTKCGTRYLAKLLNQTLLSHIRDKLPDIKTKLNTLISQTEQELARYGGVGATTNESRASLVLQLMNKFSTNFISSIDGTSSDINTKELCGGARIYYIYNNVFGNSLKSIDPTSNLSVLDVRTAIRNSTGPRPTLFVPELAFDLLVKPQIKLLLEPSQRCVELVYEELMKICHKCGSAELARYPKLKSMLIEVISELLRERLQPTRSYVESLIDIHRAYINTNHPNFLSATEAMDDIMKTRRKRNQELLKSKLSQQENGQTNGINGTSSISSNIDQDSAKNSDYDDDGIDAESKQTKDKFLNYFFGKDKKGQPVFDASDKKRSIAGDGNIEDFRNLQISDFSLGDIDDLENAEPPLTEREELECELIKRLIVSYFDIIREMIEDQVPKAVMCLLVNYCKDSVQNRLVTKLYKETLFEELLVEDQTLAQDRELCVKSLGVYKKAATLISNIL

B1: Dnm1 (enzyme, yeast, UniProt P54861 1-757, looked up)
chain: MASLEDLIPTVNKLQDVMYDSGIDTLDLPILAVVGSQSSGKSSILETLVGRDFLPRGTGIVTRRPLVLQLNNISPNSPLIEEDDNSVNPHDEVTKISGFEAGTKPLEYRGKERNHADEWGEFLHIPGKRFYDFDDIKREIENETARIAGKDKGISKIPINLKVFSPHVLNLTLVDLPGITKVPIGEQPPDIEKQIKNLILDYIATPNCLILAVSPANVDLVNSESLKLAREVDPQGKRTIGVITKLDLMDSGTNALDILSGKMYPLKLGFVGVVNRSQQDIQLNKTVEESLDKEEDYFRKHPVYRTISTKCGTRYLAKLLNQTLLSHIRDKLPDIKTKLNTLISQTEQELARYGGVGATTNESRASLVLQLMNKFSTNFISSIDGTSSDINTKELCGGARIYYIYNNVFGNSLKSIDPTSNLSVLDVRTAIRNSTGPRPTLFVPELAFDLLVKPQIKLLLEPSQRCVELVYEELMKICHKCGSAELARYPKLKSMLIEVISELLRERLQPTRSYVESLIDIHRAYINTNHPNFLSATEAMDDIMKTRRKRNQELLKSKLSQQENGQTNGINGTSSISSNIDQDSAKNSDYDDDGIDAESKQTKDKFLNYFFGKDKKGQPVFDASDKKRSIAGDGNIEDFRNLQISDFSLGDIDDLENAEPPLTEREELECELIKRLIVSYFDIIREMIEDQVPKAVMCLLVNYCKDSVQNRLVTKLYKETLFEELLVEDQTLAQDRELCVKSLGVYKKAATLISNIL

Columns and labels:
[1] = biological target: the molecule itself; experiment: negative-stain electron microscopy
[2] = biological target: the molecule itself; experiment: cross-linking
[3] = biological target: B1; experiment: cell-based or functional assay
[4] = biological target: the molecule itself; experiment: SEC + other: sucrose gradient sedimentation
[5] = biological target: T1, Dnm1K41A; experiment: liposome flotation

Row | amount of GTP cross-linked to Dnm1 by ultraviolet light on addition of Mdv1 [3] | binding result [5] | Binder | binding result [1] | stoichiometry N [2] | stoichiometry N [4]
1 |  |  | B1 | binds |  | 
2 | 1.4 fold | binds | Mdv1 (natural protein, yeast, UniProt P47025 1-714, looked up) MSVNDQITHIGKTLSTTASAFLNYQKSNSNTQDVLTNNGPYKNLLSNTVNNASSTSYFYKRTEHGRFVKNASNTFEDIYSKTRRGDVFRNKFTDNKTCFRMLTYISDDLLNEIPTKEGLKSDADGKLLTEGGENENLRKNASKKETSLFQGFKSYLPIAELAIENTERLNYDTNGTSGTVGAKDVMSKTNERDEIHTELPNFQDSFLIPPGVETKKISSSYSPSALKSFSQTLVNSLEFLNIQKNSTLSEIRDIEVEVENLRQKKEKLLGKIANIEQNQLLLEDNLKQIDDRLDFLEEYGLEVIEANSDENAEDDGMSERKALKNDAIRNEGVTTESISSEASNLPPRRRQQLRDDNSLNRLGAFYSKSKKRHRKSFPTFQQLYEPGTKIGSIMSTHDDFLTCLDFDAPFGTLCTAGYLDHTVKIWDLSKQNKIGELAGHLATINCMQINRDYGTLVTGGRDAALKLWNLNLAQQLYQETQNLTSPTNHIDSPCVHTFEAHTDEVTALSLDPSFLVSGSQDRTIRQWDLRSGKCLQTIDLSFANVLTTSTNVDLSKSTLLTQRNERPSIGALQSFDAALATGTKDGVVRLWDLRSGKVIRTLKGHTDAITSLKFDSACLVTGSYDRTVRIWDLRTGLLNKFHAYSAPVLSLDLFQENAAVVVADEPSVQIYDSEKDESWSCVEQGNETSVSTVKYKENYMVEGRENGDVNIWAV |  | 4 and 6 | 2
